Legend:
murine NK cells = experiment: PDGFRβ expression in murine splenic NK cells, flow cytometry; format: cell-based, mouse; details: splenic NK cells of C57BL/6 mice, mouse cytokines 10 ng/ml, 24 h
Protocol: (§1) FIGS. 7A-7F. […] Data shown are representative histograms and mean fluorescence intensity (MFI) of PDGFRα. […] Expression levels of PDGFRβ were examined by flow cytometry (n=6). […] Data shown are the percentages of PDGFRβ^+ NK cells among total NK cells (n=5). […] Data shown are representative histograms with MFI of PDGFRβ expression. (F) Expression levels of PDGFRβ on NK cells from IL-15 transgenic (Tg) mice were determined by flow cytometry. Data shown are representative histograms. Data represent three independent experiments.
Mouse NK cells were isolated from the spleen of C57BL/6J or IL-15 transgenic mice, using the EasySep Mouse NK Cell Isolation Kit ([…] Technologies) as previously described (11).
Cells were stained with the indicated cell-surface markers and/or fixed/permeabilized using a Fixation/Permeabilization Kit (eBioscience). For intracellular staining of IFN-γ and PDGF-D, 5 μg/ml Brefeldin A (BioLegend) was added for 4 h before cell harvest. Intracellular staining of Ki67 was performed by fixing and permeabilizing with the Foxp3/Transcription Factor Staining Kit (eBioscience). […] Data were analyzed using NovoExpress software (Agilent Technologies).

[1] = system: PDGFRβ expression in human NK cells; experiment: Cytokine-induced PDGFRβ expression in purified human NK cells, flow cytometry; format: cell-based; details: cytokine 10 ng/ml, 24 h; IL-15 effect dose- and time-dependent
Source text: Data shown are the percentages of PDGFRβ^+ NK cells among total NK cells (n=5). […] Bar=20 μm. […] Data represent three independent experiments. Data shown are means SD.
as §1
NK cells were cultured in RPMI 1640 with 10% heat-inactivated FBS (Gibco) at 37° C. in a 5% CO2 humidified incubator. For NK cell transduction, PDGFRB cDNA ORF clone (Cat: HG10514-G) was purchased from Sino Biological and cloned into pCDH-CMV-MCS-EF1-copGFP lentivirus vector (System Biosciences). To produce lentivirus, we transfected the lentiviral transfer vector DNA, together with psPAX2 packaging (Addgene) and pMD2.G envelope plasmid DNA (Addgene), into HEK293T cells; using a polyethyenimine (PEI) transfection protocol (Polysciences). Concentrated lentivirus was added to primary NK cells cultured in RPMI 1640 medium supplemented with 10% FCS and 10 jig/mL polybrene with 2,000×g centrifugation for 2 h. […]

B1: IL-12: recombinant human IL-12 p70 (200-12); recombinant murine IL-12 in the mouse NK cell test (protein, UniProt P29459 23-219; P29460 23-328, looked up)
Interleukin-12 subunit alpha: RNLPVATPDPGMFPCLHHSQNLLRAVSNMLQKARQTLEFYPCTSEEIDHEDITKDKTSTVEACLPLELTKNESCLNSRETSFITNGSCLASRKTSFMMALCLSSIYEDLKMYQVEFKTMNAKLLMDPKRQIFLDQNMLAVIDELMQALNFNSETVPQKSSLEEPDFYKTKIKLCILLHAFRIRAVTIDRVMSYLNAS
Interleukin-12 subunit beta: IWELKKDVYVVELDWYPDAPGEMVVLTCDTPEEDGITWTLDQSSEVLGSGKTLTIQVKEFGDAGQYTCHKGGEVLSHSLLLLHKKEDGIWSTDILKDQKEPKNKTFLRCEAKNYSGRFTCWWLTTISTDLTFSVKSSRGSSDPQGVTCGAATLSAERVRGDNKEYEYSVECQEDSACPAAEESLPIEVMVDAVHKLKYENYTSSFFIRDIIKPDPPKNLQLKPLKNSRQVEVSWEYPDTWSTPHSYFSLTFCVQVQGKSKREKKDRVFTDKTSATVICRKNASISVRAQDRYYSSSWSEWASVPCS
modifications: p70 heterodimer
notes: recombinant human IL-12 p70 (200-12); recombinant murine IL-12 in the mouse NK cell test
B1 was tested, and the “PDGFRβ expression in murine NK cells” value (murine NK cells) was “did not express PDGFRβ” and the PDGFRβ expression [1] was “ineffective”.

Source: patent US20250017964A1, “ENGINEERING OR INDUCING PDGF AND/OR PDGFR SIGNALING TO ENHANCE NK CELL THERAPY” (City of Hope, priority 2021, published 2025)
